Source: PMC3702382 (Biochemistry, 2013)

Target: the molecule itself
Experiment: TOXCAT

Protein | CAT activity, % of WT
NRASLALTLLLLAILVWLMYSLWFGILIN (domain or fragment) [FtsB transmembrane domain TOXCAT construct, Gln 16 to Met] | 22 % of WT
NRASLALTLLLLAILVWLNYSLWFGILIN (domain or fragment) [FtsB transmembrane domain TOXCAT construct, Gln 16 to Asn] | 67%
